Read-outs that look alike come from different tables or passages of the source.
How the values were obtained:
human NT-3 [1] = target: T1, human NT-3 (human, UniProt P20783 139-257); experiment: ELISA, plate coated with human NT-3 (50 ng per well), OD450
T1 construct: Bought protein; also called Neurotrophic factor-3
T1 sequence (looked up): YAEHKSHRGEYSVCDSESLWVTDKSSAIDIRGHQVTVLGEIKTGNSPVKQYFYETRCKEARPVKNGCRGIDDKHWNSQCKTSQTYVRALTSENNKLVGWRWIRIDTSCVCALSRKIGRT

[2] = target: T2, recombinant human NGF protein (human, UniProt P01138 122-241); experiment: ELISA, human NGF coated
T2 construct: Bought protein; also called nerve growth factor; biotin-labeled human NGF
Experimental: The affinity and specificity of humanized antibody were investigated by using human NGF as an antigen (Beijing Yiqiao Shenzhou Technology Co., Ltd., 11050-HNAC). NGF was diluted with […] coating solution (PBS), and each well of 96-well microtiter plate was coated with 50 ng, after washing and blocking, and then added with serially diluted antibodies, and incubated at room temperature for 1 hour. After washing three times, HRP-conjugated donkey anti-human IgG antibody (Biolegend) was added and reacted at room temperature for 1 hour. After washing three times, tetramethylbenzidine (TMB, Biolegend) was added for color development. 1M HC1 was […] used to terminate the color development, and the absorbance values were read at 450 nm with a microplate reader.

human NT-4 [3] = target: T3, human NT-4 (human, UniProt P34130 81-210); experiment: ELISA, plate coated with human NT-4 (50 ng per well), OD450
T3 construct: Bought protein; also called Neurotrophic factor-4
T3 sequence (looked up): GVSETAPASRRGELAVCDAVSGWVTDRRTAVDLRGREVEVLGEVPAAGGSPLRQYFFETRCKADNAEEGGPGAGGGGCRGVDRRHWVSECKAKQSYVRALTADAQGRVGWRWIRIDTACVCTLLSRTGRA

[4] = target: T2, recombinant human NGF protein; experiment: cell-based or functional assay
human BDNF [5] = target: T4, human BDNF (human, UniProt P23560 129-247); experiment: ELISA, plate coated with human BDNF (50 ng per well), OD450
T4 construct: Bought protein; also called Brain-Derived Neurotrophic Factor
T4 sequence (looked up): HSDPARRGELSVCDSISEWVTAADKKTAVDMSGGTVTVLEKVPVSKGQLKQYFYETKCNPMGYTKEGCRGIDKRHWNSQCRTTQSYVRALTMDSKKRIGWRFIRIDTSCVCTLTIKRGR

human NT-3 [6] = target: T1, human NT-3; experiment: ELISA, plate coated with human NT-3 (50 ng per well), OD450; remark: listed apart in the source
Experimental: Each well of a 96-well microtiter plate was coated with 50 ng of human NGF (Beijing Yiqiao Shenzhou Technology Co., Ltd., 11050-HNAC), human BDNF (Beijing Yiqiao Shenzhou Technology Co., Ltd., 50240-MNAS), human NT-3 (Beijing Yiqiao Shenzhou Technology Co., Ltd., 10286-HNAE), or human NT-4 (Alomone, N-270). The bindings of the murine anti-NGF antibodies to human NGF and three homo-family proteins were detected according to the method described in Example 2.
The binding of the humanized anti-NGF antibody to human NGF and to three homo-family proteins was detected according to the ELISA method described in Example 6A.

human BDNF [7] = target: T4, human BDNF; experiment: ELISA, plate coated with human BDNF (50 ng per well), OD450; remark: listed apart in the source
human NT-4 [8] = target: T3, human NT-4; experiment: ELISA, plate coated with human NT-4 (50 ng per well), OD450; remark: listed apart in the source

T2 sequence (P01138 122-241 limits assumed): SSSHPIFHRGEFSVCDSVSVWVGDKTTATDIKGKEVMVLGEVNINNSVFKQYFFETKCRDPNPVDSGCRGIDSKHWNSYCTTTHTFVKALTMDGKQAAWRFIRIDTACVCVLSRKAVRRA

B1: humanized anti-NGF antibody 43E5-02 (antibody, V domains shown)
VH: QVQLVQSGAEVKKPGASVKVSCKASGYTFTDYEMHWVRQAPGQGLEWIGAIDPETGGTAYNQKFKGRATLTADKSISTAYMELSRLRSDDTAVYYCRRGANLNHYGNDEGSYWGQGTLVTVSS
VL: DVVMTQSPLSLPVTLGQPASISCKSSQSLLHSVGKTYLNWLQQRPGQSPRRLIYLVSKLDSGVPDRFSGSGSGTDFTLKISRVEAEDVGVYFCWQGTHLPQTFGGGTKVEIK
notes: Humanized antibody expressed in CHO cells
binding result (human NT-3 [1]): no binding (tested: 66.67 nM)
EC50 [2]: 222 pM
binding result (human NT-4 [3]): no binding (tested: 66.67 nM)
IC50, inhibition of NGF-induced proliferation of TF-1 cell [4]: 534 pM
binding result (human BDNF [5]): no binding (tested: 66.67 nM)

B2: humanized anti-NGF antibody 43E5-01 (antibody, V domains shown)
VH: QVQLVQSGAEVKKPGASVKVSCKASGYTFTDYEMHWVRQAPGQGLEWMGAIDPETGGTAYNQKFKGRVTMTADKSISTAYMELSRLRSDDTAVYYCRRGANLNHYGNDEGSYWGQGTLVTVSS
VL: DVVMTQSPLSLPVTLGQPASISCKSSQSLLHSVGKTYLNWLQQRPGQSPRRLIYLVSKLDSGVPDRFSGSGSGTDFTLKISRVEAEDVGVYFCWQGTHLPQTFGGGTKVEIK
notes: as for B1
binding result (human NT-3 [1]): no binding (tested: 66.67 nM)
EC50 [2]: 229 pM
binding result (human NT-4 [3]): no binding (tested: 66.67 nM)
IC50, inhibition of NGF-induced proliferation of TF-1 cell [4]: 582 pM
binding result (human BDNF [5]): no binding (tested: 66.67 nM)

B3: humanized anti-NGF antibody 43E5-05 (antibody, V domains shown)
VH: QVQLVQSGAEVKKPGSSVKVSCKASGYTFTDYEMHWVRQAPGQGLEWMGAIDPETGGTAYNQKFKGRVTITADKSTSTAYMELSSLRSEDTAVYYCRRGANLNHYGNDEGSYWGQGTLVTVSS
VL: DVVMTQSPLSLPVTLGQPASISCKSSQSLLHSVGKTYLNWLQQRPGQSPRRLIYLVSKLDSGVPDRFSGSGSGTDFTLKISRVEAEDVGVYFCWQGTHLPQTFGGGTKVEIK
notes: as for B1
binding result (human NT-3 [1]): no binding (tested: 66.67 nM)
EC50 [2]: 214 pM
binding result (human NT-4 [3]): no binding (tested: 66.67 nM)
IC50, inhibition of NGF-induced proliferation of TF-1 cell [4]: 701 pM
binding result (human BDNF [5]): no binding (tested: 66.67 nM)

B4: humanized anti-NGF antibody 43E5-06 (antibody, V domains shown)
VH: QVQLVQSGAEVKKPGSSVKVSCKASGYTFTDYEMHWVRQAPGQGLEWIGAIDPETGGTAYNQKFKGRATLTADKSTSTAYMELSSLRSEDTAVYYCRRGANLNHYGNDEGSYWGQGTLVTVSS
VL: DVVMTQSPLSLPVTLGQPASISCKSSQSLLHSVGKTYLNWLQQRPGQSPRRLIYLVSKLDSGVPDRFSGSGSGTDFTLKISRVEAEDVGVYFCWQGTHLPQTFGGGTKVEIK
notes: as for B1
binding result (human NT-3 [1]): no binding (tested: 66.67 nM)
EC50 [2]: 192 pM
binding result (human NT-4 [3]): no binding (tested: 66.67 nM)
IC50, inhibition of NGF-induced proliferation of TF-1 cell [4]: 568 pM
binding result (human BDNF [5]): no binding (tested: 66.67 nM)

B5: human-mouse chimeric antibody 43E5-chi (antibody, V domains shown)
VH: QVQLQQSGAELVRPGASVTLSCKASGYTFTDYEMHWVRQTPVHGLEWIGAIDPETGGTAYNQKFKGKATLTADKSSSTAYMELRSLTSEDSAVYYCRRGANLNHYGNDEGSYWGQGTLVTVSA
VL: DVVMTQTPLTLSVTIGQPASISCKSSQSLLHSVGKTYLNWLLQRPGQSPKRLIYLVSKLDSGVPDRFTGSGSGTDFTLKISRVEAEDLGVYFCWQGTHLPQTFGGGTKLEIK
notes: the constant regions are not specified
binding result (human NT-3 [1]): no binding (tested: 66.67 nM)
EC50 [2]: 104 pM
binding result (human NT-4 [3]): no binding (tested: 66.67 nM)
IC50, inhibition of NGF-induced proliferation of TF-1 cell [4]: 255 pM
binding result (human BDNF [5]): no binding (tested: 66.67 nM)

B6: human-mouse chimeric antibody 138E12-Chi (antibody, V domains shown)
VH: QVQLKESGPGLVAPSQSLSITCTVSGFSLTGYGVNWVRQPPGKGLEWLGMIWFDGSTDYNSALKSRLSISKDNSKSQVFLKMNSLQTDDTARYYCAREGYYYGTTYYFDYWGQGTTLTVSS
VL: DIQMTQTTSSLSASLGDRVTISCRASQDISNYLNWYQQKPDGTVKLLIYYTSRLHSGVPSRFSGSGSGTDYSLTISNLEQEDIATYFCQQGNTLPRTFGGGTKLEIK
notes: as for B5
binding result (human NT-3 [6]): no binding (tested: 66.67 nM)
binding result (human BDNF [7]): no binding (tested: 66.67 nM)
EC50 [2]: 45.4 pM
binding result (human NT-4 [8]): no binding (tested: 66.67 nM)
IC50, inhibition of NGF-induced proliferation of TF-1 cell [4]: 74 pM

Source: patent publication US20230109780A1 (XIYUAN ANJIAN MEDICINE SHANGHAI, published 2023)
